From the RNAGym collection of RNA variant scans (doi:10.7554/elife.80360)

B1: Hammerhead Ribozyme (parent)
chain: ACCGGAUGUGCUUUCCGGUCUGAUGAGUCCGUGAGGACGAAACAG

Variants of: B1
Test: self-cleavage, relative activity (ratio to wild type); higher = more cleavage; co-transcriptional

Variant	self-cleavage
G27U G31C	0.462
G27U G31U	0.474
G5A U21C	0.977
C3U G5C	0.351
C15A G25A	0.341
G10A A42C	0.406
U14G A42C	0.382
A40G A44C	0.304
A6G A41G	0.266
A34U C38U	0.799
A26C G36U	0.355
C15A A41G	0.325
G25U G45A	0.306
C20U C38G	0.298
C29U G33A	0.959
C11U G33C	0.659
G4U C15A	0.425
G18C C43A	0.327
C2A A23G	0.334
C3U C43A	0.344
G35U A41C	0.305

Variant	self-cleavage
G10A G22A	0.352
C20G G39C	0.321
G27C C30U	0.818
G27C U28A	0.508
G17A A41U	0.347
C20A A41G	0.309
A26G G27C	0.297
U7G C15A	0.89
U21C A37U	0.72
G8C C38G	0.596
U12G G25A	0.316
C2A C38A	0.381
U19A C30U	0.369
C30U U32C	1.05
A23U G35C	0.356
C2G C11G	0.402
A23U C30A	0.463
U21C G27C	0.557
C20A G36C	0.313
G4A U21C	0.373
U24C C38G	0.601

Variant	self-cleavage
C29U G36A	0.722
G36A A42C	0.287
U14G C15A	0.659
A1U U14G	0.692
A1G U13G	1.97
C3U A26U	0.624
U13G G35A	0.916
C30U A42C	0.314
U24G G25A	0.494
G31U C43A	0.376
C2G U32A	0.418
U12G G39U	0.319
C11U A23U	0.338
A1U U12A	0.66
U12G G45C	0.676
C15G U24G	0.574
A1U U28C	0.5
G10U C16A	1.06
G17C C29G	0.349
U13A U32C	1.24
G31C A40C	0.564

Variant	self-cleavage
G5A G10U	1.73
G25C A42U	0.332
U21C G39U	0.34
C2U U13A	1.52
G8U U28C	1.23
G4C U24A	0.777
G5A U9G	0.88
G5C A26U	0.339
U21C A42U	0.318
C15A A44G	0.897
G4A G36A	0.367
U21C A26C	0.404
U13A U21C	0.908
G5C U19A	0.344
C11A A26C	0.725
C15A A23G	0.428
A1G A37G	1.23
C2U G27C	0.654
G5A A42U	0.353
U9G C20G	0.422
